Data reported in patent US20070032640A1, “Cytokine receptor” (priority 2001, published 2007).
Numbering of substitutions follows the chain as printed.

T1: human soluble interleukin 6 receptor α-chain (hsIL6Rα) and hsgp130 (Homo sapiens, UniProt P08887)
T1 construct: human soluble interleukin 6 receptor α-chain (hsIL6Rα)
T1 sequence (P08887 20-355 limits assumed): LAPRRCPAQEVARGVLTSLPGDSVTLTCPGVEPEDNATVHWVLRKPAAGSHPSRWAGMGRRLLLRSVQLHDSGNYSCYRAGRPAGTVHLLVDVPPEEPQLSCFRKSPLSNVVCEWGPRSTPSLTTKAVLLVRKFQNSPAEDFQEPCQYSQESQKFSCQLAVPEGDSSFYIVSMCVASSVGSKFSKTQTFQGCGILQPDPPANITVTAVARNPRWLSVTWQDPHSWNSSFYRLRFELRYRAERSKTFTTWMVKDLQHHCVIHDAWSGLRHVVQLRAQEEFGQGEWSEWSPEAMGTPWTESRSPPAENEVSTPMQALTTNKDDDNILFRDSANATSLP

T2: gp130 (Homo sapiens, UniProt P40189)
T2 sequence (P40189 23-918): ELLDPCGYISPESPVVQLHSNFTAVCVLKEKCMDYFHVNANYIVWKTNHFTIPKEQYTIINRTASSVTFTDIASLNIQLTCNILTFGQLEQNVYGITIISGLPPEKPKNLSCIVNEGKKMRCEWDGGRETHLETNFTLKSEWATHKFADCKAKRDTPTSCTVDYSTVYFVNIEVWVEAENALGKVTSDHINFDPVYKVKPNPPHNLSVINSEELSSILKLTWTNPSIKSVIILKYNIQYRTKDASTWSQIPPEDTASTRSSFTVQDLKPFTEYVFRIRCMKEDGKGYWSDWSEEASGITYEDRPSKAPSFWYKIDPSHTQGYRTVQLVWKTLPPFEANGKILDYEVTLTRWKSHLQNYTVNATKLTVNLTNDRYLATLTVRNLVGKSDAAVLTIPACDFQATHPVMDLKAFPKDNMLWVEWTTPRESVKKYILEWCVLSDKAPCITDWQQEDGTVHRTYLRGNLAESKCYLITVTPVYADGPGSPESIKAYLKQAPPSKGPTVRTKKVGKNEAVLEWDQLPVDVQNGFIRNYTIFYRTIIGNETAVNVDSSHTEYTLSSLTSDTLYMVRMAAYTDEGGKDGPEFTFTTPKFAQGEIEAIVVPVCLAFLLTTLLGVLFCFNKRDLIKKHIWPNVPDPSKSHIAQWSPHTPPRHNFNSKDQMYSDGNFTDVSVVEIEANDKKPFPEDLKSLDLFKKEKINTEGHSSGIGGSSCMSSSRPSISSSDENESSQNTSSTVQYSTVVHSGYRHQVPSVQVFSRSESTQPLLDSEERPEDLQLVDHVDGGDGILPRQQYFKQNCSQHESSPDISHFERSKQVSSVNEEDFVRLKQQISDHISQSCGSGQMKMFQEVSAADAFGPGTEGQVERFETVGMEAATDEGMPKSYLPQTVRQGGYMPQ

T3: IL-6R (Homo sapiens, UniProt P08887)
T3 construct: endogenous in cells; host or cells: human myeloma U266 cells
T3 sequence (P08887 20-468): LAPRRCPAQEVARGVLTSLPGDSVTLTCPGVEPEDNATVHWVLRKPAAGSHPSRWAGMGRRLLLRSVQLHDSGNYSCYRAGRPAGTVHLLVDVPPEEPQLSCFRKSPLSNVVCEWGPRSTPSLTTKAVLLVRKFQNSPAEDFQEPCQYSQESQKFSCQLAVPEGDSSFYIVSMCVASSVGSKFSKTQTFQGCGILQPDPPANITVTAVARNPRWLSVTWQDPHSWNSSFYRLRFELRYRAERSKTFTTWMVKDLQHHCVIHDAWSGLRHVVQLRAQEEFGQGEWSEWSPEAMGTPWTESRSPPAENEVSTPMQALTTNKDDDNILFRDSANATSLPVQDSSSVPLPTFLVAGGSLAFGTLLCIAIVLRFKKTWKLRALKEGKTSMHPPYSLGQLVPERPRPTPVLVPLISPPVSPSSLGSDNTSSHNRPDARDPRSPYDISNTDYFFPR

B1: C192: IL-6R with C192 mutated to alanine (protein, UniProt P08887 20-468, looked up, variant C192A)
Interleukin-6 receptor …: T3 sequence (P08887 20-468) with C192A
B2: D262: IL-6R D-G mutant at D262 (protein, UniProt P08887 20-468, looked up, variant D262G)
Interleukin-6 receptor …: T3 sequence (P08887 20-468) with D262G
B3: H261: IL-6R H-I mutation at H261 (protein, UniProt P08887 20-468, looked up, variant H261I)
Interleukin-6 receptor …: T3 sequence (P08887 20-468) with H261I
B4: V259: IL-6R V-N mutant at V259 (protein, UniProt P08887 20-468, looked up, variant V259N)
Interleukin-6 receptor …: T3 sequence (P08887 20-468) with V259N
B5: W214: IL-6R W-Q mutant at W214 (protein, UniProt P08887 20-468, looked up, variant W214Q)
Interleukin-6 receptor …: T3 sequence (P08887 20-468) with W214Q
B6: F134: IL-6R F-L mutation at F134 (protein, UniProt P08887 20-468, looked up, variant F134L)
Interleukin-6 receptor …: T3 sequence (P08887 20-468) with F134L
B7: F-Y mutant: IL-6R F-Y mutant at F168 (protein, UniProt P08887 20-468, looked up, variant F168Y)
Interleukin-6 receptor …: T3 sequence (P08887 20-468) with F168Y

Legend:
[1] = target: T1, human soluble interleukin 6 receptor α-chain (hsIL6Rα) and hsgp130; assay: High capacity screening assay: binding of europium-labelled human IL6 to hsIL6Rα and immobilised hsgp130; conditions: Eu-IL-6 binding by time resolved fluorescence as % of control, FIG. 7A
From the text: Compounds designed according to the methods of the present invention may be assessed by a number of in vitro and in vivo assays of hormone function. For example, the identification of IL-6 receptor antagonists of may be undertaken using a solid-phase receptor binding assay. Potential antagonists may be screened for their ability to inhibit the binding of europium-labelled IL-6 receptor ligands to soluble, recombinant IL-6 receptor in a microplate-based format. Europium is a lanthanide fluorophore, the presence of which can be measured using time-resolved fluorometry. The sensitivity of this assay matches that achieved by radioisotopes, measurement is rapid and is performed in a microplate format to allow high-sample throughput, and the approach is gaining wide acceptance as the method of choice in the development of screens for receptor agonists/antagonists (see Apell et al., J. Biomolec. Screening 3:19-27, 1998: Inglese et al., Biochemistry 37:2372-2377, 1998).
(§1) Solid phase receptor binding assays. Ten compounds selected from Table 3 (NCI compounds) were tested for their ability to modulate the binding of europium-labelled IL-6 to soluble, recombinant IL-6 receptor (A) or the binding of europium-labelled IGF-1 to soluble, recombinant IGF-1 receptor (B) in a microplate-based format. Binding to the receptor is measured by time resolved fluorescence (TRF) as a % of control.
Ten of the compounds listed in Table 3 were tested for their ability to modulate binding of IL-6 to IL-6R/gp130. The high throughput screening assay used for this purpose detects the binding of europium-labelled human IL6 (Eu-hIL6) to human soluble interleukin 6 receptor α-chain (hsIL6Rα) and hsgp130 immobilised on the surface of wells of a microtitre plate. The protocol followed was essentially as follows: […]
The fractions were assayed for europium by diluting 10,000-fold in 200 μL of DELFIA enhancement solution and measuring europium fluorescence. […] The concentration of Eu-IL6 was determined from the absorbance at 280 nm (0.5 AU/mg/mL) and the labelling stoichiometry based on a molecular mass of 21,300. […]

[2] = target: T4, soluble, recombinant IGF-1 receptor (Homo sapiens, UniProt P08069); assay: Solid phase receptor binding assay, IGF-1R/IGF-1 system (specificity); conditions: Eu-IGF-1 binding to IGF-1 receptor, FIG. 7B
T4 construct: soluble, recombinant IGF-1 receptor
T4 sequence (P08069 31-736): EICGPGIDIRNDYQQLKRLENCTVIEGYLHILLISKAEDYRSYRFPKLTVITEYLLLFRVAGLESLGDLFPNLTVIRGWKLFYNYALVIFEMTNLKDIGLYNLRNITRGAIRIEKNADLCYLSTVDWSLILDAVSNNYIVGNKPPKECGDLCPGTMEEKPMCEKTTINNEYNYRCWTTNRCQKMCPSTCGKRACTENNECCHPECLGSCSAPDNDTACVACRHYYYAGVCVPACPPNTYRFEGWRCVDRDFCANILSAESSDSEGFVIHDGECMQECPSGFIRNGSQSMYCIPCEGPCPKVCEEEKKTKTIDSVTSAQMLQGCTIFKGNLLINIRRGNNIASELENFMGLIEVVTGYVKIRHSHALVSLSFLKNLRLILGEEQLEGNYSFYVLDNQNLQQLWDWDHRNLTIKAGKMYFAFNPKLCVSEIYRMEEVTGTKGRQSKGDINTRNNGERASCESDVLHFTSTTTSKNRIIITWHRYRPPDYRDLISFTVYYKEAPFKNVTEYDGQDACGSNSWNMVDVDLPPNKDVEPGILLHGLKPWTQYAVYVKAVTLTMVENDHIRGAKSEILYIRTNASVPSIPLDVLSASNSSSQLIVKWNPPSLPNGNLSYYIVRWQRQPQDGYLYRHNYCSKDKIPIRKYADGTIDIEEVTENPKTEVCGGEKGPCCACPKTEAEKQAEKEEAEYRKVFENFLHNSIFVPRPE
T4 sequence (P08069 741-935): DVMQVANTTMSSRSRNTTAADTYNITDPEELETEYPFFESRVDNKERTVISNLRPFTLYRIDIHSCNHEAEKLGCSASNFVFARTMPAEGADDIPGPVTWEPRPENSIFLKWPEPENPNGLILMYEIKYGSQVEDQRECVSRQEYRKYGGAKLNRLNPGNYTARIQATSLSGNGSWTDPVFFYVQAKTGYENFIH
Experimental: as §1
In order to examine specificity, the compounds were also assayed against the IGF receptor system in an identical manner.

[3] = target: T2, gp130; set-up: endogenous in cells; host or cells: human myeloma U266 cells; conditions: human myeloma U266 cells, high-affinity binding; read-out: affinity of IL-6/IL-6R complex for gp130; cited from earlier work
[4] = target: T3, IL-6R; conditions: human myeloma U266 cells, low-affinity binding; cited from earlier work
[5] = test system: IL-6; conditions: cited from earlier work; for Binding: IL-6 binding of IL-6R mutant, relative to wild type
[6] = test system: gp130 signalling; conditions: cited from earlier work; for Signalling: gp130 signalling of IL-6R mutant, relative to wild type

Row | Molecule | Binding [5] [%] | Signalling [6] | other results
1 | O=C(C[n+]1ccc2ccccc2c1)c1ccc(-c2ccccc2)cc1 [compound 17791, 1-[1,1′-biphenyl]-4-yl-2-(2^5-isoquinolin-2-yl)ethanone] | – | – | effect on IL-6 binding to IL-6R/gp130 (antagonist or agonist) [1]: agonists; specificity against the IGF-1R/IGF-1 system [2]: specifically
2 | Nc1c(C(=O)Nc2ccc3c(c2)C(=O)c2ccccc2C3=O)ccc2c1C(=O)c1ccccc1C2=O [compound 39914, 1-amino-N-(9,10-dioxo-9,10-dihydro-2-anthracenyl)-9,10-dioxo-9,10-dihydro-2-anthracenecarboxamide] | – | – | effect on IL-6 binding to IL-6R/gp130 (antagonist or agonist) [1]: antagonist; specificity against the IGF-1R/IGF-1 system [2]: specifically
3 | O=C(O)c1ccccc1C(=O)Nc1cc2c(cc1Br)-c1ccccc1C2=O [compound 56681, 2-(((3-bromo-9-oxo-9H-fluoren-2-yl)amino)carbonyl)benzoic acid] | – | – | effect on IL-6 binding to IL-6R/gp130 (antagonist or agonist) [1]: agonists; specificity against the IGF-1R/IGF-1 system [2]: specifically
4 | IL-6/IL-6R complex: complex of IL-6 with the ligand binding α-chain receptor IL-6R | – | – | Kd [3]: ~0.01 nM
5 | IL-6: multifunctional cytokine, natural ligand of the IL-6 receptor | – | – | Kd [4]: ~1 nM
6 | B1 | – | – | binding of IL-6 to IL-6R (in words) ([5]; mutated to alanine): slightly increased; signalling (in words) ([6]; mutated to alanine): slightly increased
7 | B2 | 30 | <10% | –
8 | B3 | 115 | 10% | –
9 | B4 | 40 | 140% | –
10 | B5 | 70 | >150% | –
11 | B6 | >100 | 70% | –
12 | B7 | – | mutant signals at 50% | –
